Residue numbers refer to the chain shown, from its start.
B1: COVA2-04 Fab (Fab, V domains shown)
VH: QVQLVETGGGLIQPGGSLRLSCAASGFTVSSNYMSWVRQAPGKGLEWVSVIYSGGSTFYADSVKGRFTISRDNSKNTLYLQMNSLRAEDTAVYYCARDLERAGGMDVWGQGTMVTVSS
VL: not shown
B2: COVA2-39 Fab (Fab, V domains shown)
VH: QVQLVETGGGLIQPGGSLRLSCAASGFTVSSNYMSWVRQAPGKGLEWVSVIYTGGTTYYADSVKGRFTISRDNSKNTLYLQMNSLRAEDTAVYYCARAHVDTAMVESGAFDIWGQGTRVTVSS
VL: QSALTQPASVSGSPGQSITISCTGTSSDVGSYNLVSWYQQHPGKAPKLMIYEVTKRPSGVSNRFSGSKSGNTASLTISGLQAEDEADYYCCSYAGSSTWVFGGGTKLTVL
B3: COVA2-39 with the 53TGGT56 motif reverted to the germline-encoded 53SGGS56 motif (Fab, V domains shown)
VH: B2 VH with T53S, T56S
VL: B2 VL

Molecular target: SARS-CoV-2 spike (S) protein receptor-binding domain (RBD), residues 319-541 (SARS-CoV-2, Wuhan-Hu-1 (GenBank …, UniProt P0DTC2))
Experiment: BLI
Conditions: both partners purified

Binder | Kd [nM] | fold decrease in other [fold]
B1 | 40 | 
B2 | 21 | 
B3 |  | ≥ 50

Reference: publication PMC7522650, “An Alternative Binding Mode of IGHV3-53 Antibodies to the SARS-CoV-2 Receptor Binding Domain” (Cell Reports, 2020)
